Data as given in patent publication US20230357447A1 (JANUX THERAPEUTICS, published 2023).
Where two headings read alike, the source gives them in different places. Ends that are not written are not given here.

B1: Peptide-32 (peptide)
peptide: MDWCPIHLWHVCFN
modifications: cysteine pairing not given here; also: biotinylated, site not given here
notes: Synthetic biotinylated peptide loaded on streptavidin biosensors
B2: Peptide-41 (peptide)
peptide: MDWCPRDLWVHCFA
modifications: cysteine pairing not given here; also: biotinylated, site not given here
notes: as for B1
B3: Peptide-37 (peptide)
peptide: MDWCPRDLWDLCFA
modifications: cysteine pairing not given here; also: biotinylated, site not given here
notes: as for B1
B4: Peptide-34 (peptide)
peptide: MNWCPKDIWYLCFN
modifications: cysteine pairing not given here; also: biotinylated, site not given here
notes: as for B1
B5: Peptide-42 (peptide)
peptide: MDWCPRDMWDECFA
modifications: cysteine pairing not given here; also: biotinylated, site not given here
notes: as for B1
B6: Peptide-43 (peptide)
peptide: MDWCPRDMWSECFA
modifications: cysteine pairing not given here; also: biotinylated, site not given here
notes: as for B1
B7: Peptide-40 (peptide)
peptide: MDWCPRDLWSECFF
modifications: cysteine pairing not given here; also: biotinylated, site not given here
notes: as for B1
B8: Peptide-35 (peptide)
peptide: MDWCPLHMWHECFS
modifications: cysteine pairing not given here; also: biotinylated, site not given here
notes: as for B1
B9: Peptide-38 (peptide)
peptide: MDWCPRDLWHECFA
modifications: cysteine pairing not given here; also: biotinylated, site not given here
notes: as for B1
B10: Peptide-47 (peptide)
peptide: MDWCPRSLWHECFA
modifications: cysteine pairing not given here; also: biotinylated, site not given here
notes: as for B1
B11: Peptide-36 (peptide)
peptide: MDWCPLYLWNECFN
modifications: cysteine pairing not given here; also: biotinylated, site not given here
notes: as for B1
B12: Peptide-33 (peptide)
peptide: MDWCPIYLWSECFN
modifications: cysteine pairing not given here; also: biotinylated, site not given here
notes: as for B1
B13: Peptide-39 (peptide)
peptide: MDWCPRDLWHLCFS
modifications: cysteine pairing not given here; also: biotinylated, site not given here
notes: as for B1
B14: Peptide-31 (peptide)
peptide: MDWCPIDLWNECFF
modifications: cysteine pairing not given here; also: biotinylated, site not given here
notes: as for B1

Columns and labels:
[1] = biological target: Anti-CD28 scFv (VH-linker 1-VL); experiment: phage ELISA: biotinylated anti-CD28 scFv on neutravidin plate, clonal phage supernatant, anti-M13-HRP; wells pre-incubated with soluble CD28 (competitor);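 for Phage binding ELISA CD28 scFv signal in presence of CD28: wells pretreated with soluble CD28 protein in blocking buffer before phage addition, no wash in between, reference wells got blocking buffer only, bound phage detected after washing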
[2] = biological target: Anti-CD28 scFv (VH-linker 1-VL); experiment: phage ELISA: biotinylated anti-CD28 scFv on neutravidin plate, clonal phage supernatant, anti-M13-HRP;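 note: before phage addition, wells were preincubated either with soluble CD28 protein in blocking buffer or with blocking buffer only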
[3] = biological target: T1, Ab-12, anti-PD-L1xCD28 non-masked antibody in Vh format; experiment: competition ELISA: peptide titrated against 5 nM Ab-12; binding of Ab-12 to captured biotinylated CD28 antigen is read
T1 construct: also called PDL1xCD28 non-masked (Vh)

[4] = biological target: T1, Ab-12, anti-PD-L1xCD28 non-masked …; experiment: as above; remark: listed apart in the source

Binder | Phage binding ELISA CD28 scFv signal in presence of CD28 [1] | Phage binding ELISA CD28 scFv signal [2] | IC50 [3] [nM] | IC50 [4] [nM]
MDWCPRDRWDVCYY (Clonal phage from the Peptide-9 library) [Phage-447] | 0.073 | 0.074 |  | 
MVDCPLISFDECLA (Clonal phage from the Peptide-9 library) [Phage-449] | 0.076 | 0.07 |  | 
MDWCPRDRWADCFN (Clonal phage from the Peptide-9 library) [Phage-436] | 0.08 | 1.35 |  | 
MDWCPVDRWADCFN (Clonal phage from the Peptide-9 library) [Phage-437] | 0.315 | 1.16 |  | 
MDWCPRDRWDDCFF (Clonal phage from the Peptide-9 library) [Phage-441] | 0.183 | 0.899 |  | 
MDWCPRDRWVDCFN (Clonal phage from the Peptide-9 library) [Phage-440] | 0.132 | 0.911 |  | 
MDWCPRDRWDDCFN (Clonal phage from the Peptide-9 library) [Phage-446] | 0.077 | 0.45 |  | 
B1 |  |  | 970 | 
MAWCPWAQFDECLA (Clonal phage from the Peptide-9 library) [Phage-433] | 0.078 | 0.071 |  | 
MAWCPWASFDECLA (Clonal phage from the Peptide-9 library) [Phage-448] | 0.109 | 0.089 |  | 
B2 |  |  |  | 150
MDWCPMTRWNDCYF (Clonal phage from the Peptide-9 library) [Phage-443] | 0.078 | 0.671 |  | 
B3 |  |  | 1110 | 
MDWCPRDRWDVCFA (Clonal phage from the Peptide-9 library) [Phage-439] | 0.096 | 0.924 |  | 
MDWCPMSRWAFCFD (Clonal phage from the Peptide-9 library) [Phage-438] | 0.115 | 1 |  | 
IVWCPTTQWNRCAT (Clonal phage from the Peptide-9 library) [Phage-434] | 0.083 | 0.067 |  | 
MDWCPRDRWVDCYA (Clonal phage from the Peptide-9 library) [Phage-435] | 0.403 | 1.48 |  | 

Binder | Phage binding ELISA CD28 scFv signal in presence of CD28 [1] | Phage binding ELISA CD28 scFv signal [2] | IC50 [3] [nM] | IC50 [4] [nM]
B4 |  |  | 1410 | 
EDWCPTDVWPYCFS (Clonal phage from the Peptide-9 library) [Phage-450] | 0.157 | 0.711 |  | 
MDWCPRFWWHECYA (Clonal phage from the Peptide-9 library) [Phage-451] | 0.503 | 2.4 |  | 
B5 |  |  |  | 440
B6 |  |  |  | 240
B7 |  |  |  | 250
B8 |  |  | 1270 | 
IYWCPIDRWNDCYN (Clonal phage from the Peptide-9 library) [Phage-442] | 0.164 | 0.867 |  | 
MDWCPRDWWHMCFN (Clonal phage from the Peptide-9 library) [Phage-452] | 0.243 | 2.12 |  | 
B9 |  |  | 350 | 
B10 |  |  |  | 450
B11 |  |  | 400 | 
B12 |  |  | 160 | 
B13 |  |  | 480 | 
B14 |  |  | 1770 | 
MDWCPRARWHDCFF (Clonal phage from the Peptide-9 library) [Phage-445] | 0.138 | 0.497 |  | 
MDWCPSDYWYVCFA (Clonal phage from the Peptide-9 library) [Phage-453] | 0.08 | 0.707 |  | 
